# Substitutions are numbered along the chain they refer to.
# B1: v38592-MC-GGFG-AM-Compound 139, DAR 8 (antibody, human IgG1, kappa)
# heavy: not shown
# light: EIVLTQSPATLSLSPGERATISCRSSQSLRHSNGNTYLQWYQQKPGQAPRLLIYKVSNRFSGVPARFSGSGSGTDFTLTISSLEPEDFAVYFCYQSKHVPYTFGGGTKVEIKRTVAAPSVFIFPPSDEQLKSGTASVVCLLNNFYPREAKVQWKVDNALQSGNSQESVTEQDSKDSTYSLSSTLTLSKADYEKHKVYACEVTHQGLSSPVTKSFNRGEC
# modifications: MC-GGFG-AM-Compound 139 drug-linker on reduced cysteines, sites not stated; MC-GGFG-AM-Compound 139 drug-linker on reduced cysteines, sites not stated; DAR 8 for the whole antibody
# notes: antibody-drug conjugate
# B2: v37574 (M3-H18L6) (antibody, human IgG1, kappa)
# heavy: not shown
# light: B1 light
# notes: Humanized full-size IgG1/kappa antibody, heavy chains without C-terminal lysine
# B3: v38592-MC-GGFG-AM-Compound 139, DAR 8 (antibody, human IgG1, kappa)
# heavy: not shown
# light: B1 light
# modifications: MC-GGFG-AM-Compound 139 drug-linker on cysteines (positions not stated); DAR 8 per antibody
# notes: Antibody-drug conjugate of v38592
# B4: v38592-MC-GGFG-AM-Compound 139, DAR 4 (antibody, human IgG1, kappa)
# heavy: not shown
# light: B1 light
# modifications: MC-GGFG-AM-Compound 139 drug-linker on cysteines (positions not stated); DAR 4 per antibody
# notes: as for B3
# B5: H18L6_LC_G34D mAb, v40203 (antibody, human IgG1, kappa, V domains shown)
# VH: QVQLVQSGAEVKKPGSSVKVSCKASGYTFTDYEMHWVKQAPGHGLEWIGAIDPETGDTAYNQKFKGKATLTADTSTSTAYMELSSLRSEDTAVYYCTRYFSFAYWGQGTLVTVSS
# VL: EIVLTQSPATLSLSPGERATISCRSSQSLRHSNDNTYLQWYQQKPGQAPRLLIYKVSNRFSGVPARFSGSGSGTDFTLTISSLEPEDFAVYFCYQSKHVPYTFGGGTKVEIKR
# B6: H18L6_LC_G34K mAb, v40207 (antibody, human IgG1, kappa, V domains shown)
# VH: B5 VH
# VL: B5 VL with D34K
# notes: Full-size IgG1/kappa
# B7: H18L6_LC_G34Q mAb, v40208 (antibody, human IgG1, kappa, V domains shown)
# VH: B5 VH
# VL: B5 VL with D34Q
# notes: Full-size IgG1/kappa
# B8: H18L6_LC_G34A mAb, v40212 (antibody, human IgG1, kappa, V domains shown)
# VH: B5 VH
# VL: B5 VL with D34A
# notes: M3-H18L6 chains with the stated light chain point mutation, IgG1/kappa
# B9: H18L6_LC_G34R mAb, v40206 (antibody, human IgG1, kappa, V domains shown)
# VH: B5 VH
# VL: B5 VL with D34R
# notes: Full-size IgG1/kappa
# B10: H18L6_LC_G34E mAb, v40204 (antibody, human IgG1, kappa, V domains shown)
# VH: B5 VH
# VL: B5 VL with D34E
# notes: as for B8
# Tests used:
# human GPC3 on cells [1] = biological target: T1, human GPC3 on cells (human, UniProt P51654 25-554); experiment: flow cytometry on HepG2 cells (GPC3-high), 24 h at 4 C, anti-human IgG Fc AF647
# T1 construct: GPI-anchored protein on transfected CHO-S cells, on human tumor cell lines or on HEK293T cells; the cell is named under assay; also called human GPC3 on CHO-S transfected cells; HuGPC3-CHO
# Experimental: (§1) Cell lines investigated included GPC3-hi HepG2 and JHH-7 cells, GPC3-mid JHH-5 cells, as well as GPC3-negative SNU-601 cells.
# (§2) Briefly, cells were seeded at 50,000 cells/well in V-bottom 96-well plates and treated with antibody for 24 hours at 4° C. to prevent internalization. […] Following incubation and washing, fluorescence was detected by flow cytometry on a BD LSRFortessa™ Cell Analyzer (BD Biosciences, Franklin Lake, NJ) with 1,000 minimum events collected per well. AF647/APC-A GeoMean (fluorescence signal geometric mean, proportional to anti-Human AF647 binding) in live cell population was plotted against antibody concentration using GraphPad Prism Version 9 (GraphPad Software, San Diego, CA). The Bmax, Curve Hill Slope (h) and Kd values were derived from the “Specific binding with Hill slope” nonlinear regression curve fit in GraphPad Prism Version 9.
# human GPC3 on cells [2] = biological target: T1, human GPC3 on cells; experiment: flow cytometry on JHH-7 cells (GPC3-high), 24 h at 4 C, anti-human IgG Fc AF647
# Experimental: as §1, §2
# [3] = biological target: T2, cynomolgus monkey GPC3 on CHO-S cells (cynomolgus monkey, UniProt A0A2K5VK50 24-553); experiment: flow cytometry, CHO-S cells transfected with cynomolgus monkey GPC3
# T2 construct: whole, on cells; also called CHO-S Cyno GPC3
# Experimental: (§3) Briefly, CHO—S cells were transiently transfected for −24 hours with a pTT5-based expression plasmid encoding human GPC3 or cynomolgus monkey GPC3, 0.5 μg DNA per 1 million cells, using the Neon™ Transfection System (Thermo Fisher Scientific Corp., Waltham, MA), to transiently express human or cynomolgus monkey GPC3. Following transfection, cells were seeded at 50,000 cells/well in V-bottom 96-well plates and treated with antibody for 24 hours at 4° C. to prevent internalization. […] Following incubation and washing, fluorescence was detected by flow cytometry on a BD LSRFortessa™ Cell Analyzer (BD Biosciences, Franklin Lake, NJ) with 1,000 minimum events collected per well. AF647/APC-A GeoMean (fluorescence signal geometric mean, proportional to anti-Human AF647 binding) in live cell population was plotted against antibody concentration using GraphPad Prism Version 9 (GraphPad Software, San Diego, CA). The Bmax and Kd values were derived from the “Specific binding with Hill slope” nonlinear regression curve fit in GraphPad Prism Version 9.
# human GPC3 on cells [4] = biological target: T3, human GPC3 on cells (human, UniProt P51654 25-554); experiment: flow cytometry, JHH-7 cells
# T3 construct: whole, on cells; One molecule is used for transfected CHO-S cells and for tumour cell lines that carry GPC3; the cell line is named under assay or readout; also called CHO-S Human GPC3; GPC3 on HepG2, JHH-7, JHH-5, NCI-H446, FU-97, Huh-6, Huh-7, MKN-45 cells
# Experimental: as §1, §2
# human GPC3 on cells [5] = biological target: T3, human GPC3 on cells; experiment: flow cytometry, CHO-S cells transfected with human GPC3
# Experimental: as §3
# human GPC3 on cells [6] = biological target: T3, human GPC3 on cells; experiment: flow cytometry, HepG2 cells
# Experimental: as §1, §2
# human GPC3 on cells [7] = biological target: T3, human GPC3 on cells; experiment: flow cytometry, CHO-S cells transfected with human GPC3; apparent Kd
# Experimental: as §3
# [8] = biological target: T2, cynomolgus monkey GPC3 on CHO-S cells; experiment: flow cytometry, CHO-S cells transfected with cynomolgus monkey GPC3; apparent Kd
# Experimental: as §3
# human GPC3 on cells [9] = biological target: T3, human GPC3 on cells; experiment: flow cytometry, JHH-5 cells
# Experimental: as §1, §2
# human glypican-3 (GPC3) [10] = biological target: T4, human glypican-3 (GPC3) (human, UniProt P51654 25-554); experiment: flow cytometry on JHH-5 cells; antibody in mouse plasma, day 0
# T4 construct: Endogenous on JHH-7, JHH-5, HepG2 and NCI-H446 tumour cells, or transiently expressed on CHO-S cells from a pTT5 plasmid; also called hGPC3; huGPC3
# Experimental: (§4) For binding cells were seeded at 50,000 cells/well in V-bottom 96-well plates and treated with antibody for 24 hours at 4° C. to prevent internalization. […] Following incubation and washing, fluorescence was detected by flow cytometry on a BD LSRFortessa™ Cell Analyzer (BD Biosciences, Franklin Lake, NJ) with 1,000 minimum events collected per well. AF647/APC-A GeoMean (fluorescence signal geometric mean, proportional to anti-Human AF647 binding) in live cell population was plotted against antibody concentration using GraphPad Prism Version 9 (GraphPad Software, San Diego, CA). The Bmax, Curve Hill Slope (h) and Kd values were derived from the “Specific binding with Hill slope” nonlinear regression curve fit in GraphPad Prism Version 9.
# human glypican-3 (GPC3) [11] = biological target: T4, human glypican-3 (GPC3); experiment: flow cytometry on CHO-S cells transfected with human GPC3;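 also: antibody binding to transiently transfected CHO-S cells after 24 hours at 4 °C, read as geometric mean fluorescence of anti-human AF647 in live cells, fitted against antibody concentration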
# Experimental: (§5) Briefly, CHO—S cells were transiently transfected for −24 hours with a pTT5-based expression plasmid encoding human GPC3 or cynomolgus monkey GPC3, 0.5 μg DNA per 1 million cells, using the Neon™ Transfection System (Thermo Fisher Scientific Corp., Waltham, MA), to transiently express human or cynomolgus monkey GPC3. Cells transfected with GFP were used as negative transfection controls. Following transfection, cells were seeded at 50,000 cells/well in V-bottom 96-well plates and treated with antibody for 24 hours at 4° C. to prevent internalization. […] Following incubation and washing, fluorescence was detected by flow cytometry on a BD LSRFortessa™ Cell Analyzer (BD Biosciences, Franklin Lake, NJ) with 1,000 minimum events collected per well. AF647/APC-A GeoMean (fluorescence signal geometric mean, proportional to anti-Human AF647 binding) in live cell population was plotted against antibody concentration using GraphPad Prism Version 9 (GraphPad Software, San Diego, CA). The Bmax and Kd values were derived from the “Specific binding with Hill slope” nonlinear regression curve fit in GraphPad Prism Version 9.
# human glypican-3 (GPC3) [12] = biological target: T4, human glypican-3 (GPC3); experiment: flow cytometry on JHH-7 cells (GPC3-high);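 also: antibody binding at 4 °C for 24 h, detected with anti-human AF647 secondary, geometric mean fluorescence of live cells versus antibody concentration, fitted as specific binding with Hill slope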
# Experimental: as §2
# human glypican-3 (GPC3) [13] = biological target: T4, human glypican-3 (GPC3); experiment: flow cytometry on JHH-5 cells; antibody after 14 days in mouse plasma at 37 C
# Experimental: as §4
# human glypican-3 (GPC3) [14] = biological target: T4, human glypican-3 (GPC3); experiment: cell-based or functional assay
# [15] = biological target: T5, cynomolgus monkey glypican-3 (GPC3) (cynomolgus monkey, UniProt A5A6P7 25-554 (Pan troglodytes entry)); experiment: flow cytometry on CHO-S cells transfected with cynomolgus GPC3;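 also: antibodies incubated 24 h at 4 °C with transiently transfected cells, binding read as AF647 geometric mean fluorescence of live cells, GFP-transfected cells as negative control, Hill-slope specific-binding fit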
# T5 construct: Transiently expressed on CHO-S cells; also called cynoGPC3; CynoGPC3-CHO
# Experimental: as §5
# human glypican-3 (GPC3) [16] = biological target: T4, human glypican-3 (GPC3); experiment: flow cytometry on JHH-5 cells (GPC3-mid);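 also: antibody binding to cells at 4 °C for 24 h, detected with anti-human AF647 as geometric mean fluorescence of live cells versus antibody concentration, fitted by specific binding with Hill slope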
# Experimental: as §2
# human glypican-3 (GPC3) [17] = biological target: T4, human glypican-3 (GPC3); experiment: flow cytometry on JHH-7 cells; antibody in mouse plasma, day 0
# Experimental: as §4
# human glypican-3 (GPC3) [18] = biological target: T4, human glypican-3 (GPC3); experiment: cell-based or functional assay; remark: listed apart in the source
# human glypican-3 (GPC3) [19] = biological target: T4, human glypican-3 (GPC3); experiment: flow cytometry on JHH-7 cells; antibody after 14 days in mouse plasma at 37 C
# Experimental: as §4
# For JHH-5 Internalization (MFI), Day 0 in mouse plasma in this document: test concentration or dose not given here.
# For JHH-5 Internalization (MFI), Day 14 in mouse plasma in this document: test concentration or dose not given here.
# For JHH-7 Internalization (MFI), Day 0 in mouse plasma in this document: test concentration or dose not given here.
# For JHH-7 Internalization (MFI), Day 14 in mouse plasma in this document: test concentration or dose not given here.
Binder,Bmax (MFI) (human glypican-3 (GPC3) [10]),Kd (human glypican-3 (GPC3) [10]),Bmax (MFI) (human glypican-3 (GPC3) [11]),Kd (human glypican-3 (GPC3) [11]),Bmax (MFI) (human glypican-3 (GPC3) [12]),Kd (human glypican-3 (GPC3) [12]),Bmax (MFI) (human glypican-3 (GPC3) [13]),Kd (human glypican-3 (GPC3) [13]),"JHH-5 Internalization (MFI), Day 0 in mouse plasma (human glypican-3 (GPC3) [14])","JHH-5 Internalization (MFI), Day 14 in mouse plasma (human glypican-3 (GPC3) [14])","JHH-7 Internalization (MFI), Day 0 in mouse plasma (human glypican-3 (GPC3) [14])","JHH-7 Internalization (MFI), Day 14 in mouse plasma (human glypican-3 (GPC3) [14])",Bmax (MFI) [15],Kd [15],Bmax (MFI) (human glypican-3 (GPC3) [16]),Kd (human glypican-3 (GPC3) [16]),Bmax (MFI) (human glypican-3 (GPC3) [17]),Kd (human glypican-3 (GPC3) [17]),JHH-5 Internalization (MFI) (human glypican-3 (GPC3) [18]),JHH-7 Internalization (MFI) (human glypican-3 (GPC3) [18]),further results
B1,–,–,–,–,–,–,–,–,–,–,–,–,–,–,–,–,–,–,–,–,EC50 (read off the curve) (human GPC3 on cells [1]): ~7 nM; EC50 (read off the curve) (human GPC3 on cells [2]): ~0.8 nM
B2,–,–,–,–,–,–,–,–,–,–,–,–,–,–,–,–,–,–,–,–,Bmax [3]: 474; Bmax (human GPC3 on cells [4]): 4980; Kd (human GPC3 on cells [4]): 3.31 nM; Bmax (human GPC3 on cells [5]): 242; Bmax (human GPC3 on cells [6]): 4570; Kd (human GPC3 on cells [7]): 0.2 nM; Kd [8]: 0.39 nM; Bmax (human GPC3 on cells [9]): 4350; Kd (human GPC3 on cells [9]): 0.2 nM
B3,–,–,–,–,–,–,–,–,–,–,–,–,–,–,–,–,–,–,–,–,Bmax [3]: 511; Bmax (human GPC3 on cells [4]): 4550; Kd (human GPC3 on cells [4]): 0.7 nM; Bmax (human GPC3 on cells [5]): 247; Bmax (human GPC3 on cells [6]): 3370; Kd (human GPC3 on cells [6]): 7.27 nM; Kd (human GPC3 on cells [7]): 0.33 nM; Kd [8]: 0.7 nM; Bmax (human GPC3 on cells [9]): 5710; Kd (human GPC3 on cells [9]): 0.51 nM
B4,–,–,–,–,–,–,–,–,–,–,–,–,–,–,–,–,–,–,–,–,Bmax [3]: 506; Bmax (human GPC3 on cells [4]): 4730; Kd (human GPC3 on cells [4]): 0.88 nM; Bmax (human GPC3 on cells [5]): 259; Bmax (human GPC3 on cells [6]): 4050; Kd (human GPC3 on cells [6]): 8.69 nM; Kd (human GPC3 on cells [7]): 0.29 nM; Kd [8]: 0.55 nM; Bmax (human GPC3 on cells [9]): 5500; Kd (human GPC3 on cells [9]): 0.43 nM
B5,4660 MFI,0.11 nM,2470 MFI,0.18 nM,12200 MFI,0.4 nM,4520 MFI,0.34 nM,8690 MFI,5690 MFI,104 MFI,63 MFI,2870 MFI,0.18 nM,4280 MFI,0.24 nM,9140 MFI,0.26 nM,6770 MFI,5010 MFI,Bmax (MFI) (human glypican-3 (GPC3) [19]): 8060 MFI; Kd (human glypican-3 (GPC3) [19]): 0.62 nM
B6,5490 MFI,0.07 nM,2330 MFI,0.11 nM,12200 MFI,0.39 nM,6460 MFI,0.26 nM,12800 MFI,11400 MFI,143 MFI,115 MFI,2930 MFI,0.16 nM,4740 MFI,0.2 nM,9620 MFI,0.16 nM,10000 MFI,8760 MFI,Bmax (MFI) (human glypican-3 (GPC3) [19]): 10900 MFI; Kd (human glypican-3 (GPC3) [19]): 0.31 nM
B7,4730 MFI,0.11 nM,2280 MFI,0.11 nM,11600 MFI,0.44 nM,5640 MFI,0.15 nM,10500 MFI,9980 MFI,131 MFI,106 MFI,2820 MFI,0.15 nM,4360 MFI,0.16 nM,8910 MFI,0.32 nM,9510 MFI,8920 MFI,Bmax (MFI) (human glypican-3 (GPC3) [19]): 11000 MFI; Kd (human glypican-3 (GPC3) [19]): 0.23 nM
B8,4930 MFI,0.15 nM,2200 MFI,0.12 nM,13300 MFI,0.56 nM,6050 MFI,0.23 nM,10200 MFI,7290 MFI,131 MFI,75 MFI,3160 MFI,0.25 nM,3850 MFI,0.31 nM,8360 MFI,0.36 nM,9070 MFI,8070 MFI,Bmax (MFI) (human glypican-3 (GPC3) [19]): 11300 MFI; Kd (human glypican-3 (GPC3) [19]): 0.28 nM
B9,5450 MFI,0.07 nM,2450 MFI,0.1 nM,12500 MFI,0.34 nM,5320 MFI,0.21 nM,13300 MFI,11100 MFI,144 MFI,115 MFI,2850 MFI,0.13 nM,4910 MFI,0.19 nM,9390 MFI,0.15 nM,10700 MFI,9240 MFI,Bmax (MFI) (human glypican-3 (GPC3) [19]): 9710 MFI; Kd (human glypican-3 (GPC3) [19]): 0.39 nM
B10,4760 MFI,0.11 nM,2260 MFI,0.11 nM,12500 MFI,0.42 nM,4460 MFI,0.26 nM,7100 MFI,6040 MFI,91 MFI,73 MFI,2870 MFI,0.15 nM,4140 MFI,0.17 nM,8500 MFI,0.26 nM,5770 MFI,4410 MFI,Bmax (MFI) (human glypican-3 (GPC3) [19]): 8430 MFI; Kd (human glypican-3 (GPC3) [19]): 0.67 nM

# From US20250295799A1 (Zymeworks, published 2025)
